In patent US7127357 (dated 2006):
Non-standard residues stand in square brackets, D forms with d. No end group written: not given here. pS = N[C@@H](COP(=O)(O)O)C(=O)O

Molecular target: F25Y
Assay: binding to CTD phosphopeptide

Y[pS]PT[pS]PS (also: tetramethylrhodamine label on an amine, place not given here) [CTD Repeat Tyr-P.Ser-Pro-Thr-P.Ser-Pro-Ser]
Kd: 12 µM
